For 1 sequence, phase transition results are on record in patent US20110250237A1, “IMMUNOGENIC AMPHIPATHIC PEPTIDE COMPOSITIONS” (priority 2008, published 2011).

A short description of the data set: Differential scanning calorimetry of peptide and particles. The format is physicochemical. The note with it: normal saline, peptide 1.11 mg/ml, scanned 20° C. to 130° C. The method, then: Differential scanning calorimetry is used to study the unfolding events associated with the peptide and particles. This technique is used to measure the amount of heat required to increase the temperature of the sample and reference, resulting in peaks at phase transition temperatures at which more heat is required by the samples to be maintained at the same temperature as the reference. In case of proteins the melting temperatures are determined at which half of the protein exists in an unfolded state.
The peptide of SEQ ID NO: 1 is used to form particles at peptide to lipid (POPC) molar ratios of 1:1.75, 1:3 and 1:7, the particles with peptide at concentration of 1.11 mg/ml and lipid at 0.55 mg/ml are used. The peptide alone and lipid alone are used as controls and the samples are scanned from 20° C. to 130° C.
(In general: In DSC, transitions show as peaks or steps in heat flow.)

In turn, “DWLKAFYDKVAEKLKEAFLA [peptide SEQ ID NO: 1, amphipathic peptide]” displayed a phase transition of 50 °C.
